The target of data set [1] is aggregated dGAE (Homo sapiens, UniProt P10636). The data set is described as follows: Capture ELISA ranking mAbs for capture of dGAE aggregates. Type of data set: binding. As to conditions: capture mAb 1 μg/ml; 800 nM aggregated dGAE. The procedure: The aggregation cascade of natively unfolded tau into insoluble filaments is a defining pathological feature of AD. Therefore, it is logical to target aggregated tau filaments for both therapeutic and diagnostic purposes. The following experiment was performed to assess the ability of our dGA mAb panel to bind aggregated dGAE using a capture ELISA method. Aggregates were prepared by incubating 100 μM dGAE and 10 mM dTT for 24 h at 37° C. with shaking at 700 RPM. The following day, dGAE aggregates were centrifuged at 17,000×g for 20 min and the supernatant was removed. The remaining pellet was washed with 10 mM phosphate buffer and centrifuged as above. Washing was repeated a further two times to remove any remaining dGAE monomer. The dGAE pellet was resuspended in 100 μl of 10 mM phosphate buffer. (Using a separate capture ELISA based quantification, we have worked out the efficiency of our dGAE aggregation as 80%)
Sequence of aggregated dGAE (P10636 614-708): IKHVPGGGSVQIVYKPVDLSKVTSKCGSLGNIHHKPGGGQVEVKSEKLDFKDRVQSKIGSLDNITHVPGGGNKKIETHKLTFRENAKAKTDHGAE
Following washing, 800 nM aggregated dGAE was added to the designated wells, double diluted across the plate and incubated for 1 h at RT. The plate was washed again and 1 μg/ml S1G2 scAb was added as detection antibody and incubated for 1 h at RT. To the row where S1G2 mAb was used for capture, […] s1D12 scAb was added as […] instead of S1G2. The assay was developed using HRP labelled HuCK as described previously.

Data set [2] deals with tau fragments in plasma of WT, L1 and L66 mice. Nature of the data set: Capture ELISA on transgenic mouse plasma. As to conditions: Line66 transgenic model. As for the experimental part: Plasma samples from WT, L1, L66+/− and L66+/+ of various ages (1.5-9 months) were taken as described. Mice were terminally anaesthetized using an overdose of sodium pentobarbital and blood was collected through cardiac puncture through a Plastipak syringe pre-rinsed with heparinised saline heparin (10 U/ml) (Heparin sodium salt; Sigma-Aldrich) and transferred into a plastic vial containing lithium heparin anticoagulant (Sarstedt Ltd.) Blood samples, kept on ice for no more than 30 minutes, were centrifuged to obtain plasma at 2000× g for 5 minutes at 6° C. Plasma samples were stored at −20° C.
For mouse plasma capture ELISA, 100 μL capture mAb was coated to the bottom of a black nunc 96 well ‘maxisorp’ plate at 2.5 μg/ml and incubated for 1 hour at 37° C. After washing and blocking as normal, several known standard solutions were set up in triplicate starting at 20 ng/ml of the desired protein before double diluted in the remaining wells. Mouse samples were added to wells in duplicate with a blank in between each sample group. Line1 plasma was diluted 1:10 before addition to plate to account for its high concentration while other samples were diluted 1:2 to account for potential matrix effects. […] The ELISA was developed using SuperSignal ELISA Femto Substrate (Thermo Scientific) and total luminescence was read on Clariostar Plus plate reader (BMG Labtech). […]
(ELISA stands for enzyme-linked immunosorbent assay.)

Data set [3] deals with T1, hT40 (T441, SEQ ID NO: 1) (Homo sapiens, UniProt P10636).
T1 construct: Full length tau (hT40)
T1 sequence (P10636 1-441 isoform P10636-8): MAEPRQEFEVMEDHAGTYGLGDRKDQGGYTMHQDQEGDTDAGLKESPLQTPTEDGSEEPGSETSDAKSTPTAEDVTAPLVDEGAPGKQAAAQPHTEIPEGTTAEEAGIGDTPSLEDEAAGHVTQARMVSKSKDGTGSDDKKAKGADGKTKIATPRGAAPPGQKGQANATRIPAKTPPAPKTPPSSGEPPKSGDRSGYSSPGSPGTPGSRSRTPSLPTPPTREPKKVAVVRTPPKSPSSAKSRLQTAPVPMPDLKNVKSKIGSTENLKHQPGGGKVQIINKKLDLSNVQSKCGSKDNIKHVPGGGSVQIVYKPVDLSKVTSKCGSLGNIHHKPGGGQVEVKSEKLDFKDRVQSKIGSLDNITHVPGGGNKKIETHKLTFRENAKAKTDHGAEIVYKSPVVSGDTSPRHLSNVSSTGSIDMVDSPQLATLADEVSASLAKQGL
Nature of the data set: Biacore X100 SPR kinetics of scAbs for hT40. The class given is binding. To be noted: Table 23; scAb captured, T441 (hT40) analyte; 1:1 model. The method in brief:
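Captured scAb on anti-HuCk CM5 surface (flow cell 1 as reference) in HBS-EP+, capture set for theoretical RMax 100 RU; hT40 injected multi-cycle (0.15625–100 nM) or single-cycle (6.25–100 nM), 120 s association, 420 s dissociation, glycine pH 2.0 regeneration. Kinetics and affinity from 1:1 binding model fit.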
(In general: In SPR one partner is held on a chip, and binding of the other changes the refractive index at the surface.)

Data set [4] concerns the target T2, htau40 (Homo sapiens, UniProt P10636).
T2 construct: Full length tau (hT40)
The data set is described as follows: Biacore X100 SPR kinetics of anti-tau mAbs on immobilised htau40. Type of data set: binding. To be noted: Table 27; mAb format, immobilised htau40. In a few lines:
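Htau40 amine-coupled to CM5 chip (~250 RU, pH 4.0 immobilisation), reference flow cell subtracted; mAb injected at 0.78–25 nM in HBS-EP+, 120 s association, 600 s dissociation, glycine pH 1.5 regeneration. Kinetic and affinity constants from 1:1 binding model fit.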

Data set [5] concerns hT40, dGA, dGAE and truncated tau fragments. Nature of the data set: Binding ELISA / epitope mapping of anti-tau scAbs with truncated tau proteins and 13mer peptides. Also on record: species or system human. In a few lines:
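Serially double-diluted scAbs were applied to 2% MPBS-blocked wells carrying either 1 μg/ml full-length or truncated tau, or biotinylated 13mer peptides (1 μg/ml) captured on 5 μg/ml streptavidin. Absorbance after HRP anti-human C kappa secondary gave the binding signal.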

Values joined by “and” are separate entries in the source; they are usually repeats but may differ in a detail not shown here. Identical values can stand only once.

T2 sequence (P10636 1-441 isoform P10636-8): as above

B1: E2E8 mAb: E2E8 reformatted; heavy chain SEQ ID NO: 493, light chain 494 (antibody)
heavy: QVQLQESGPSLVKPSQTLSLTCTVSGFSLTDRGVAWVRQAPGKALEWVGTMRSGGTIDYNPALKSRLSITRDTSKSQVFLSLSSVTTEDMAMYYCARGYLSGDRYAWGRGLLVTVSSAKTTAPSVYPLAPVCGDTTGSSVTLGCLVKGYFPEPVTLTWNSGSLSSGVHTFPAVLQSDLYTLSSSVTVTSSTWPSQSITCNVAHPASSTKVDKKIEPRGPTIKPCPPCKCPAPNLLGGPSVFIFPPKIKDVLMISLSPIVTCVVVDVSEDDPDVQISWFVNNVEVHTAQTQTHREDYNSTLRVVSALPIQHQDWMSGKEFKCKVNNKDLPAPIERTISKPKGSVRAPQVYVLPPPEEEMTKKQVTLTCMVTDFMPEDIYVEWTNNGKTELNYKNTEPVLDSDGSYFMYSKLRVEKKNWVERNSYSCSVVHEGLHNHHTTKSFSRTPGK
light: QAVLTQPSSVSKSLGQSVSIACSGSRSDIGYGNYVSWFQQIPGSAPKLLIYDTNTRASGVPDRFSGARSGNTATLTINSLQAEDEADYYCANIDSSRSHLFGSGTRLTVLGGQPKSSPSVTLFPPSSEELETNKATLVCTITDFYPGVVTVDWKVDGTPVTQGMETTQPSKQSNNKYMASSYLTLTARAWERHSSYSCQVTHEGHTVEKSLSRADCS
modifications: E2E8 mAB Heavy Chain; E2E8 mAB Light Chain
B1: the “ability to capture dGAE aggregates” value in data set [1] is recorded as “most efficient at capturing aggregated dGAE”.

B2: CB7: human-specific N-terminal anti-tau clone, Table 10; SEQ ID NO: 364 (protein)
scFv: QVQLQESGPSLVKPSQTLSLTCTVSGFSLTNYRVGWVRQAPGKALEWVSNIRSGGTTWYNPALKSRLSITADTSKSQVSLSLSSVTTEDTAVYYCARDSSGDLYAYDYWGPGLLVTVSSEGKSSGASGESKVDDQAVLTQPSSVSRSLGQSVSMTCSGSSSNVGYGNYMAWFQQVPGSAPKLLIYGATSRASGVPDRFSGSRSGNTATLTISSLQAEDEADYYCASYDSTSGGVFGSGTRLTVLG
modifications: CB7 amino acid sequence
As for B2, in data set [2], the “cross reaction with endogenous mouse tau” value is reported as “does not cross react with endogenous mouse tau protein”. The “ka” value in data set [3] amounted to 133400 M⁻¹ s⁻¹; in data set [4], 2.568e+06 M⁻¹ s⁻¹. For the same molecule, the results for the “kd” value in data set [3] and in data set [4] were 0.0006936 s⁻¹ and 0.009451 s⁻¹, respectively. In addition, the “Tau proteins/fragments with positive scAb reactivity” value in data set [5] (Table 17, 'C' group scAbs, binding ELISA) is on record as “hT40, 1-49, 1-155, 1-319”. For the same molecule, the “Shortest region bound on hT40” value in data set [5] (Table 17, 'C' group scAbs, incl. 13mer peptides) was 13-25. The Epitope in data set [5] (Table 26 summary, top scAbs, residues of hT40) is 13-25; in data set [5] (residue numbers of SEQ ID NO: 1 (hT40), CDR Tables 1-11), 13-25. The “Detection scAb (Epitope)” value in data set [5] (Table 28 (LoD table), residues of hT40) is reported as “CB7 (13-25)”. For the same molecule, the “binding region on hT40” value in data set [5] (amino acid residues of hT40) was 13-25 and 13-26. The “Binding region hT40” value in data set [5] (second Table 26, own antibodies) is “(Binding region hT40 13-25)”.

The values are drawn from US20250355001A1, “METHOD FOR DETECTING A TAU PROTEIN FRAGMENT IN A SAMPLE” (GTINVENT LIMITED, priority 2022, published 2025).
